Our source for the Kd values is publication PMC5522101.

The target in this assay is VPAC1-C37/A-EYFP (Cys37/Ala mutant of VPAC1 fused with enhanced yellow fluorescent protein) (mouse (stated for the cDNA; the primers of Table 1 and residues 31-457 fit human VPAC1)) (UniProt P97751). Description: radioligand binding; competition binding on the cell membrane fraction of CHO cells (50 ug protein/ml): 1 nM [125I]-VIP with or without unlabelled VIP, 60 min at 30°C at equilibrium; nonspecific binding with 2 uM unlabelled peptide; data calibrated by the EYFP fluorescence of the membrane fraction.

Broadly, the Kd is the free concentration of one partner at which half of the binding sites on the other are occupied at equilibrium, for simple one-to-one binding.

For HSDAVFTDNYTRLRKQMAVKKYLNSILN [vasoactive intestinal peptide], the Kd is 0.42 nM.
